Measurements taken from patent US20220323599A1, “ANTI-BCMA ANTIBODY CONJUGATE, COMPOSITIONS COMPRISING THE SAME, AND METHODS OF MAKING AND USING THE SAME” (CELGENE CORPORATION, priority 2019, published 2022).

Legend:
[1] = target: cynomolgus BCMA on stably transfected 293T cells (cynomolgus monkey); assay: flow cytometry, 293T-cBCMA cells
[2] = target: human BCMA on cells (endogenous on multiple myeloma cell lines; stably transfected 293T-hBCMA) (human) (UniProt Q02223); assay: cell-based or functional assay
[3] = target: human BCMA on cells (endogenous on multiple myeloma cell lines; stably transfected 293T-hBCMA) (human) (UniProt Q02223); assay: flow cytometry, ARP-1 cells
[4] = target: human BCMA on cells (endogenous on multiple myeloma cell lines; stably transfected 293T-hBCMA) (human) (UniProt Q02223); assay: flow cytometry, 293T-hBCMA cells
[5] = target: Recombinant human BCMA ECD protein (Acro Biosystems) (human) (UniProt Q02223); assay: competition ELISA on coated human BCMA ECD, competitor BAFF at 1 ng/ml, Experiment No. 1
Chain of Recombinant human BCMA ECD protein (Acro Biosystems) (human) (Q02223 1-54 limits assumed): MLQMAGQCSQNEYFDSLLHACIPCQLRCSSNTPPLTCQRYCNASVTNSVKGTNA

Chain of human BCMA on cells (endogenous on multiple myeloma cell lines; stably transfected 293T-hBCMA) (human) (Q02223 whole entry, the tested form may be a part): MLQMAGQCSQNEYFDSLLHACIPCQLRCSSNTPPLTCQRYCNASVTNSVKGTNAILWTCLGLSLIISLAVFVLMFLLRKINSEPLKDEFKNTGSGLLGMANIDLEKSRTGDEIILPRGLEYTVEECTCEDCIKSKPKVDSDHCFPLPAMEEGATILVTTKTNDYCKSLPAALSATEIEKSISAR
Chain of cynomolgus BCMA on stably transfected 293T cells (cynomolgus monkey) (Q02223 other isoform, or with tags, fused parts or gaps): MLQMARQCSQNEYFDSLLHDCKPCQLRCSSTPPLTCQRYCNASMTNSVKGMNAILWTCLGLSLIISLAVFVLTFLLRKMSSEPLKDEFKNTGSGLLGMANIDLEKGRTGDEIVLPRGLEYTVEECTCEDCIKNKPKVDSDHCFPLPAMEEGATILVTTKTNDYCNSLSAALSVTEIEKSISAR

## Conjugate 1: anti-BCMA antibody J6M0 conjugated to maleimido-caproyl monomethyl auristatin F (mc-MMAF), surrogate ADC for GSK2857916
[1]
  Bmax: 981 MFI
  Kd: 8.6 nM
[2]
  cell killing EC50, ARP-1: 0.52 nM
  cell killing EC50, ARP-1, no competing reagent: 0.6 nM
  cell killing EC50, MM.1S: 0.68 nM
  cell killing EC50, NCI-H929: 0.29 nM
  cell killing EC50, NCI-H929, Experiment 1: 0.2 nM
  cell killing EC50, NCI-H929, Experiment 2: 0.2 nM
  cell killing EC50, NCI-H929, no competing reagent: 0.4 nM
  cell killing EC50, OPM2, Experiment 1: 0.8 nM
  cell killing EC50, OPM2, Experiment 2: 0.9 nM
  cell killing EC50, OPM2, no competing reagent: 2.3 nM
  cell killing EC50, OPM-2: 1.4 nM
  cell killing EC50, U266B1: 0.32 nM
  cell killing EC50, U266B1, Experiment 1: 0.2 nM
  cell killing EC50, U266B1, Experiment 2: 0.3 nM
  cell killing EC50, U266B1, no competing reagent: 0.4 nM
  cell killing Span, ARP-1: 95%
  cell killing Span, ARP-1, no competing reagent: 97%
  cell killing Span, MM.1S: 86%
  cell killing Span, NCI-H929: 91%
  cell killing Span, NCI-H929, Experiment 1: 85%
  cell killing Span, NCI-H929, Experiment 2: 86%
  cell killing Span, NCI-H929, no competing reagent: 86%
  cell killing Span, OPM2, Experiment 1: 95%
  cell killing Span, OPM2, Experiment 2: 94%
  cell killing Span, OPM2, no competing reagent: 92%
  cell killing Span, OPM-2: 93%
  cell killing Span, RPMI-8226: 40%
  cell killing Span, U266B1: 90%
  cell killing Span, U266B1, Experiment 1: 85%
  cell killing Span, U266B1, Experiment 2: 84%
  cell killing Span, U266B1, no competing reagent: 90%
[3]
  Bmax: 45 MFI
  Kd: 2.4 nM
[4]
  Bmax: 856 MFI
[5]
  IC50: 7 nM
